The target of this assay is T1, purified human plasma kallikrein (active form), biotinylated (human, UniProt P03952 20-390; P03952 391-638, biotinylated with Sulfo-NHS-LC-Biotin (sites not given)).
T1 construct: The protein was captured on avidin-coated plates through biotin; also called pKal; PKal
Description: complex ELISA: biotinylated kallikrein captured on avidin plate, incubated with plasma, bound C1-INH detected with polyclonal anti-C1-INH and alkaline phosphatase secondary antibody. As for the experimental part:
Immulon 2HB plates were coated with 5 μg/ml avidin in coating buffer (100 μl) overnight at 4° C. Plates were washed three times using PBS-Tween (200 μl/each). Subsequently, 200 μl 1% BSA in PBS was added to block the unused sites. The plates were incubated at 37° C. for 1 hr. Plates were washed three times using PBS-Tween (200 μl/each). Added to the plates were: 25 μl standards or samples, 25 μl biotinylated […] and/or biotinylated kallikrein (1 μg/ml), and 50 μl binding buffer. Plates were mixed and incubated at 37° C. for 1 hour. Plates were washed three times using PBS-Tween (200 μl/each). A polyclonal antibody to C1-INH was added and incubated at room temperature for 1 hour. Plates were washed three times using PBS-Tween (200 μl/each). Alkaline phosphatase conjugated secondary antibody was added and incubated at room temperature for 1 hour. […] The OD at 450 nm was read and calculations were performed using the standard curve.
One consideration in development of the assay was that it is beneficial to employ an assay that quantitates functional C1-INH based on an enzyme that is requisite for bradykinin formation. […] Nevertheless, complex ELISA assays detecting functional interaction between C1-INH and either Factor XIIa or kallikrein worked well since only that fraction of kallikrein (˜60%) that is inhibited by C1-INH is detected.
On the technique in general: In an ELISA, binding on a coated surface is turned into a signal by an enzyme label.

T1 sequence (P03952 20-390, chain 1 of 2): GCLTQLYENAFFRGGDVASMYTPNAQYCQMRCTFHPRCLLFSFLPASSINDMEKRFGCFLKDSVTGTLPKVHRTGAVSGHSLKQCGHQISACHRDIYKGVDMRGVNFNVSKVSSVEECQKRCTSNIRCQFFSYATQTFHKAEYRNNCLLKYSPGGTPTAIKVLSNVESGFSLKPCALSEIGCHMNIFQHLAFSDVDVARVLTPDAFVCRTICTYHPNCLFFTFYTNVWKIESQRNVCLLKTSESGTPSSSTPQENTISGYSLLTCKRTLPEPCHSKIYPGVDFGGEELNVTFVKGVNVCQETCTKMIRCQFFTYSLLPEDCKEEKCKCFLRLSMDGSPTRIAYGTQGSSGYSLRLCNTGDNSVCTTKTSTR
T1 sequence (P03952 391-638, chain 2 of 2): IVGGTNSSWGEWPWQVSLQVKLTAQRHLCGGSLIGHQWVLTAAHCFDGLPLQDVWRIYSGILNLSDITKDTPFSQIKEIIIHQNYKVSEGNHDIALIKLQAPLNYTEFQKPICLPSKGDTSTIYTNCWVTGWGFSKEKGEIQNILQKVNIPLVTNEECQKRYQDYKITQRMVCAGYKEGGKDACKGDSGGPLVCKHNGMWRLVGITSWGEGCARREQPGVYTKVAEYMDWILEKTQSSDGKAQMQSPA

B1: plasma protease C1 inhibitor (C1-INH) in plasma of healthy (normal) controls (other)
chain: NPNATSSSSQDPESLQDRGEGKVATTVISKMLFVEPILEVSSLPTTNSTTNSATKITANTTDEPTTQPTTEPTTQPTIQPTQPTTQLPTDSPTQPTTGSFCPGPVTLCSDLESHSTEAVLGDALVDFSLKLYHAFSAMKKVETNMAFSPFSIASLLTQVLLGAGENTKTNLESILSYPKDFTCVHQALKGFTTKGVTSVSQIFHSPDLAIRDTFVNASRTLYSSSPRVLSNNSDANLELINTWVAKNTNNKISRLLDSLPSDTRLVLLNAIYLSAKWKTTFDPKKTRMEPFHFKNSVIKVPMMNSKKYPVAHFIDQTLKAKVGQLQLSHNLSLVILVPQNLKHRLEDMEQALSPSVFKAIMEKLEMSKFQPTLLTLPRIKVTTSQDMLSIMEKLEFFDFSYDLNLCGLTEDPDLQVSAMQHQTVLELTETGVEAAAASAISVARTLLVFEVQQPFLFVLWDQQHKFPVFMGRVYDPRA
notes: Native C1-INH as present in citrated plasma of healthy human controls (purified C1-INH in buffer was used for the standard curve); also called functional C1-INH
Take B1: the binding result is reported as “binds”.

The values above are taken from US20150362492A1 (DYAX, published 2015).
